Publication PMC12658125, “Oligomerisation of Ku from Mycobacterium tuberculosis promotes DNA synapsis” (Nature Communications, 2025)
Positions count from the first letter of the chain named. Numbers in names are those of the source.

Legend:
[1] = target: the molecule itself; assay: cryo-EM structure; apo Ku-Mtb without DNA; 20 mM Tris-HCl pH 8, 75 mM NaCl, 5 mM MgCl2, 2 mM DTT, 8 mM CHAPSO; C2 symmetry imposed; step: protomers to homodimer
[2] = target: the molecule itself; assay: cryo-EM micrographs and 2D class averages
Ku-Mtb L13A/V14A = target: T1, Ku-Mtb L13A/V14A (Mycobacterium tuberculosis, UniProt P9WKD9 1-273, L13A;V14A); assay: cryo-EM; conditions: protein: recombinant; tags: His (Ni-NTA purified); chain copies: 2; label: 5' FAM on strand 1; 3' overhang 20 nt on strand 1
T1 sequence: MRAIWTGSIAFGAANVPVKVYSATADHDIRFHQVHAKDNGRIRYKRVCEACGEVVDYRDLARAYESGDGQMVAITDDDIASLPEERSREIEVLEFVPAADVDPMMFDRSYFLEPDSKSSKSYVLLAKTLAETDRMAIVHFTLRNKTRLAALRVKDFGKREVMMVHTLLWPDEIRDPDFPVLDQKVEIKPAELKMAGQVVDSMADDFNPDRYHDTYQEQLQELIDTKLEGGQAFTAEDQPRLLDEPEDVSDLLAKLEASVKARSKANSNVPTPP

B1: Ku protein from Mycobacterium tuberculosis, wild type (natural protein)
chain: T1 sequence with A13L, A14V
notes: also called Ku-Mtb; KuMtb
stoichiometry N [1]: 2

B2: Ku-Mtb S201A/Q197A double mutant (natural protein)
chain: T1 sequence with A13L, A14V, Q197A, S201A
notes: source: over-expressed, purified
binding result [2]: binds

B3: FAM-DNA, 32 bp with 3' 20dT overhang (mixed)
DNA 1: GGAATGTAACCATCGTTGGTCGGCAGCAGGGCTTTTTTTTTTTTTTTTTTTT
DNA 2: GCCCTGCTGCCGACCAACGATGGTTACATTCC
binding result (Ku-Mtb L13A/V14A): binds
